From the supplement of paper PMC11316812
± gives the standard deviation of the averaged measurements.

Experiments:
hTERT-HMEC = assay: percentage of EdU-negative (G0-arrested) nuclei per well, 72 h; higher = more G0 arrest; conditions: reference: sequence is the full UniProt precursor, the tested protein was the secreted form or ectodomain
MCF7 = assay: as above; conditions: reference: sequence is the full UniProt precursor, the tested protein was the secreted form or ectodomain
[1] = protein concentration 0.00975 µM
[2] = protein concentration 0.0975 µM
[3] = protein concentration 0.0225 µM
[4] = protein concentration 0.03125 µM
[5] = protein concentration 0.3125 µM
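Further: secreted proteins added to cultured cells, EdU pulse at the end, nuclei found by Hoechst imaging, EdU status from nuclear versus surrounding ring intensity ratio, PBS as neutral control.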

MASSWKLMLFLSVTMCLSEYSKSLPGLSTSYAALLRIKKSSSSSLFGSKTRPRYSSPSLGTLSASSPSWLGAAQNYYSPINLYHSSDAFKQDESVDYGPVFVQEPDDIIFPTDSDEKKVALNCEVRGNPVPSYRWLRNGTEIDLESDYRYSLIDGTFIISNPSEAKDSGHYQCLATNTVGSILSREATLQFAYLGNFSGRTRSAVSVREGQGVVLMCSPPPHSPEIIYSWVFNEFPSFVAEDSRRFISQETGNLYISKVQTSDVGSYICLVKNTVTNARVLSPPTPLTLRNDGVMGEYEPKIEVHFPFTVTAAKGTTVKMECFALGNPVPTITWMKVNGYIPSKARLRKSQAVLEIPNVQLDDAGIYECRAENSRGKNSFRGQLQVYTYPHWVEKLNDTQLDSGSPLRWECKATGKPRPTYRWLKNGVPLSPQSRVEMVNGVLMIHNVNQSDAGMYQCLAENKYGAIYASAELKILASAPTFALNQLKKTIIVTKDQEVVIECKPQGSPKPTISWKKGDRAVRENKRIAILPDGSLRILNASKSDEGKYVCRGENVFGSAEIIASLSVKEPTRIELTPKRTELTVGESIVLNCKAIHDASLDVTFYWTLKGQPIDFEEEGGHFESIRAQASSADLMIRNILLMHAGRYGCRVQTTADSVSDEAELLVRGPPGPPGIVIVEEITESTATLSWSPAADNHSPISSYNLQARSPFSLGWQTVKTVPEIITGDMESAMAVDLNPWVEYEFRVVATNPIGTGDPSTPSRMIRTNEAVPKTAPTNVSGRSGRRHELVIAWEPVSEEFQNGEGFGYIVAFRPNGTRGWKEKMVTSSEASKFIYRDESVPPLTPFEVKVGVYNNKGDGPFSQIVVICSAEGEPSAAPTDVKATSVSVSEILVAWKHIKESLGRPQGFEVGYWKDMEQEDTAETVKTRGNESFVILTGLEGNTLYHFTVRAYNGAGYGPPSSEVSATTKKSPPSQAPSNLRWEQQGSQVSLGWEPVIPLANESEVVGYKVFYRQEGHSNSQVIETQKLQAVVPLPDAGVYIIEVRAYSEGGDGTASSQIRVPSYSGGKITSAQSTLHSLSTSSSSVTLLLALMIPSTSW
percentage of EdU-negative (hTERT-HMEC; [1]): 4.88 ± 0.2%
percentage of EdU-negative (hTERT-HMEC; [2]): 10.4 ± 0.39%
percentage of EdU-negative (MCF7; [1]): 26.6 ± 0.15%
percentage of EdU-negative (MCF7; [2]): 27.7 ± 2.5%

MGFNLTFHLSYKFRLLLLLTLCLTVVGWATSNYFVGAIQEIPKAKEFMANFHKTLILGKGKTLTNEASTKKVELDNCPSVSPYLRGQSKLIFKPDLTLEEVQAENPKVSRGRYRPQECKALQRVAILVPHRNREKHLMYLLEHLHPFLQRQQLDYGIYVIHQAEGKKFNRAKLLNVGYLEALKEENWDCFIFHDVDLVPENDFNLYKCEEHPKHLVVGRNSTGYRLRYSGYFGGVTALSREQFFKVNGFSNNYWGWGGEDDDLRLRVELQRMKISRPLPEVGKYTMVFHTRDKGNEVNAERMKLLHQVSRVWRTDGLSSCSYKLVSVEHNPLYINITVDFWFGA
percentage of EdU-negative (hTERT-HMEC; [3]): 5.14 ± 0.69%
percentage of EdU-negative (hTERT-HMEC; protein concentration 0.225 µM): 6.72 ± 0.53%
percentage of EdU-negative (MCF7; [3]): 25.1 ± 1.2%
percentage of EdU-negative (MCF7; protein concentration 0.225 µM): 27.9 ± 0.9%

MTPPPPGRAAPSAPRARVPGPPARLGLPLRLRLLLLLWAAAASAQGHLRSGPRIFAVWKGHVGQDRVDFGQTEPHTVLFHEPGSSSVWVGGRGKVYLFDFPEGKNASVRTVNIGSTKGSCLDKRDCENYITLLERRSEGLLACGTNARHPSCWNLVNGTVVPLGEMRGYAPFSPDENSLVLFEGDEVYSTIRKQEYNGKIPRFRRIRGESELYTSDTVMQNPQFIKATIVHQDQAYDDKIYYFFREDNPDKNPEAPLNVSRVAQLCRGDQGGESSLSVSKWNTFLKAMLVCSDAATNKNFNRLQDVFLLPDPSGQWRDTRVYGVFSNPWNYSAVCVYSLGDIDKVFRTSSLKGYHSSLPNPRPGKCLPDQQPIPTETFQVADRHPEVAQRVEPMGPLKTPLFHSKYHYQKVAVHRMQASHGETFHVLYLTTDRGTIHKVVEPGEQEHSFAFNIMEIQPFRRAAAIQTMSLDAERRKLYVSSQWEVSQVPLDLCEVYGGGCHGCLMSRDPYCGWDQGRCISIYSSERSVLQSINPAEPHKECPNPKPDKAPLQKVSLAPNSRYYLSCPMESRHATYSWRHKENVEQSCEPGHQSPNCILFIENLTAQQYGHYFCEAQEGSYFREAQHWQLLPEDGIMAEHLLGHACALAASLWLGVLPTLTLGLLVH
percentage of EdU-negative (hTERT-HMEC; [3]): 4.66 ± 0.25%
percentage of EdU-negative (hTERT-HMEC; protein concentration 0.225 µM): 5.49 ± 0.49%
percentage of EdU-negative (MCF7; [3]): 24.7 ± 2.4%
percentage of EdU-negative (MCF7; protein concentration 0.225 µM): 25.6 ± 1.6%

MPAGRRGPAAQSARRPPPLLPLLLLLCVLGAPRAGSGAHTAVISPQDPTLLIGSSLLATCSVHGDPPGATAEGLYWTLNGRRLPPELSRVLNASTLALALANLNGSRQRSGDNLVCHARDGSILAGSCLYVGLPPEKPVNISCWSKNMKDLTCRWTPGAHGETFLHTNYSLKYKLRWYGQDNTCEEYHTVGPHSCHIPKDLALFTPYEIWVEATNRLGSARSDVLTLDILDVVTTDPPPDVHVSRVGGLEDQLSVRWVSPPALKDFLFQAKYQIRYRVEDSVDWKVVDDVSNQTSCRLAGLKPGTVYFVQVRCNPFGIYGSKKAGIWSEWSHPTAASTPRSERPGPGGGACEPRGGEPSSGPVRRELKQFLGWLKKHAYCSNLSFRLYDQWRAWMQKSHKTRNQDEGILPSGRRGTARGPAR
percentage of EdU-negative (hTERT-HMEC; protein concentration 0.006 µM): 4.58 ± 0.39%
percentage of EdU-negative (hTERT-HMEC; protein concentration 0.06 µM): 5.19 ± 0.85%
percentage of EdU-negative (MCF7; protein concentration 0.006 µM): 25.3 ± 0.23%
percentage of EdU-negative (MCF7; protein concentration 0.06 µM): 28.9 ± 1.2%

MALGVPISVYLLFNAMTALTEEAAVTVTPPITAQQGNWTVNKTEADNIEGPIALKFSHLCLEDHNSYCINGACAFHHELEKAICRCFTGYTGERCEHLTLTSYAVDSYEKYIAIGIGVGLLLSGFLVIFYCYIRKRCLKLKSPYNVCSGERRPL
percentage of EdU-negative (hTERT-HMEC; [4]): 5.25 ± 0.34%
percentage of EdU-negative (hTERT-HMEC; [5]): 5.12 ± 0.77%
percentage of EdU-negative (MCF7; [4]): 26.2 ± 0.87%
percentage of EdU-negative (MCF7; [5]): 27 ± 2.6%
